The values that follow come from US20240309070A1 (ADMARE THERAPEUTICS SOCIETY, published 2024).

The target of assay [1] is T1, Western Reserve B5 on cells infected with VVddeGFP Western Reserve virus (Vaccinia virus, Western Reserve strain, UniProt Q01227 18-317).
T1 construct: also called VV B5; WR
As to the kind of experiment: flow cytometry, HT29 cells infected with WR VV.

Assay [2] addresses T2, VV B5 monomer protein (Wyeth Vaccinia strain B5 with C-terminal AVI tag and HIS6 tag) (Vaccinia virus, Wyeth strain, UniProt O57254 18-279).
T2 construct: also called B5 protein; VV B5 protein
As to the kind of experiment: BLI (Octet), antibody on AHC sensor, B5 monomer analyte.

Assay [3] has as its target T1, Western Reserve B5 on cells infected …. As to the kind of experiment: flow cytometry, SKOV3 cells infected with WR VV. (In flow cytometry, cells or beads pass a laser one at a time.)
Assay [4] has as its target T3, Copenhagen B5 on cells infected with VVCopenhagen (YFP) virus (Vaccinia virus, Copenhagen strain, UniProt P21115 18-317).
T3 construct: also called VV B5
As to the kind of experiment: flow cytometry, HT29 cells infected with Copenhagen VV.

Assay [5] deals with T2, VV B5 monomer protein (Wyeth Vaccinia …). As to the kind of experiment: ELISA, B5 monomer coated. (An ELISA detects its analyte on a solid surface through an enzyme-linked reagent.)
The target is the same in assay [6]. As to the kind of experiment: BLI (Octet), antibody on AHC sensor, B5 monomer analyte. The source holds these as a separate data set. (BLI is a label-free optical method that tracks binding on a fibre tip over time.)

Read-outs that look alike come from different tables or passages of the source.

B1: A048-H5L5 (antibody, V domains shown)
VH: QVTLKESGPVLVKPTETLTLTCTASGFSFSSSYYMCWVRQPPGKALEWIACIYTSSGSAYYANWAKGRFTISRDTSKSQVVLTMTNMDPVDTATYFCVRNAVGSSYYLYLWGQGTLVTVSS
VL: EQVLTQSPATLSLSPGERATLSCQASQSVAGNNYLSWYQQKPGQAPRLLIYSVSTLASGIPARFSGSGSGTDFTLTISSLEPEDFAVYYCQGYYNDGIWAFGQGTKLEIK
The EC50 is the concentration needed to bring the measured effect to its halfway point. What is called Kd is the constant that tells how readily two partners part at equilibrium. The low end stands for higher affinity, the high end for lower affinity. As usually defined, the koff is a measure of how fast the partners let go of each other. One may read the kon as a measure of how fast the partners come together. Read a high kon as fast association. As to B1, the EC50 in assay [1] stood at 2.28 nM; in assay [3] it was 1.36 nM; in assay [4], 2.39 nM; in assay [5], 0.104 nM. In addition, the Kd in assay [2] was 8.55 nM. For the same molecule, the koff in assay [2] was found to be 0.000521 s⁻¹. This molecule registered a kon in assay [2] of 60800 M⁻¹ s⁻¹.

B2: A048-H3L2 (antibody, V domains shown)
VH: EVQLLESGGGLVQPGGSLRLSCAASGFSFSSSYYMCWVRQAPGKGLEWIACIYTSSGSAYYADSVKGRFTISRDNSKNTLYLQMNSLRAEDTAVYYCVRNAVGSSYYLYLWGQGTLVTVSS
VL: AQVLTQSPSTLSASVGDRVTITCQASQSVAGNNYLSWYQQKPGKAPKLLIYSVSTLASGVPSRFSGSGSGTEFTLTISSLQPDDFATYYCQGYYNDGIWAFGQGTKVEIK
On to B2, for which the EC50 was determined as 1.32 nM in assay [1], 0.67 nM in assay [3], 1.87 nM in assay [4] and 0.0835 nM in assay [5]. Also, the Kd amounted to 3.83 nM in assay [2] and 3 nM in assay [6]. The molecule also came in with a koff in assay [2] of 0.000397 s⁻¹. In assay [2], this molecule gave a kon of 103000 M⁻¹ s⁻¹.

B3: A048-H1L1 (antibody, V domains shown)
VH: EVQLLESGGGLVQPGGSLRLSCAASGFSFSSSYYMCWVRQAPGKGLEWIACIYTSSGSAYYANWAKGRFTISRDNSKNTLYLQMNSLRAEDTAVYYCVRNAVGSSYYLYLWGQGTLVTVSS
VL: DIQMTQSPSTLSASVGDRVTITCQASQSVAGNNYLSWYQQKPGKAPKLLIYSVSTLASGVPSRFSGSGSGTEFTLTISSLQPDDFATYYCQGYYNDGIWAFGQGTKVEIK
In the case of B3, the EC50 is 0.97 nM in assay [1], 1.03 nM in assay [3], 2.37 nM in assay [4] and 0.0862 nM in assay [5]. Moreover, the Kd in assay [2] is 9.96 nM. The molecule also yielded a koff in assay [2] of 0.000763 s⁻¹. In addition, in assay [2], the kon amounted to 76600 M⁻¹ s⁻¹.

B4: A048-H4L4 (antibody, V domains shown)
VH: EVQLLESGGGLVQPGGSLRLSCAASGFSFSSSYYMCWVRQAPGKGLEWIACIYTSSGSAYYADSVKGRFTISRTSSTTVTLQMNSLRAEDTAVYYCVRNAVGSSYYLYLWGQGTLVTVSS
VL: AQVLTQSPSSLSASVGDRVTITCQASQSVAGNNYLSWYQQKPGKVPKLLIYSVSTLASGVPSRFSGSGSGTDFTLTISSLQPEDVATYYCQGYYNDGIWAFGQGTKVEIK
For the molecule B4, the EC50 in assay [1] is 3.05 nM; in assay [3] it was 2.36 nM; in assay [4] it was 1.32 nM; in assay [5], 0.114 nM. Moreover, the Kd in assay [2] was found to be 9.6 nM. For the same molecule, the koff in assay [2] turned out to be 0.000549 s⁻¹. In addition, the kon in assay [2] came to 57000 M⁻¹ s⁻¹.

B5: A048-H4L3 (antibody, V domains shown)
VH: EVQLLESGGGLVQPGGSLRLSCAASGFSFSSSYYMCWVRQAPGKGLEWIACIYTSSGSAYYADSVKGRFTISRTSSTTVTLQMNSLRAEDTAVYYCVRNAVGSSYYLYLWGQGTLVTVSS
VL: DIQMTQSPSSLSASVGDRVTITCQASQSVAGNNYLSWYQQKPGKVPKLLIYSVSTLASGVPSRFSGSGSGTDFTLTISSLQPEDVATYYCQGYYNDGIWAFGQGTKVEIK
Take B5: the half-maximal effective concentration (EC50) was 3.5 nM in assay [1], 1.37 nM in assay [3], 1.12 nM in assay [4] and 0.114 nM in assay [5]. The same molecule showed a Kd in assay [2] of 6.31 nM. The molecule further gave a koff in assay [2] of 0.000476 s⁻¹. This molecule also gave an association rate constant (kon) in assay [2] of 75200 M⁻¹ s⁻¹.
